Source: the supplement of paper PMC10126150
± gives the standard deviation of the averaged measurements.

What follows are sequences tested on ATP (assay: switch fluorescence ratio, 500 uM ATP over buffer (Cy3 cluster intensity, sum of 5 cycles each) (fold (ratio)); higher = stronger signal-on switching upon ATP binding; sequences stand for … in TCGTCGGCAGCGTCAGATGTGTATAAGAGACAGTTTTTTTTTTTTTTTTTTTTTTTTT…TC). Settings: aptamer strand: ATP DNA aptamer (quencher-CACCTGGGGGAGTATTGCGGAGGAAGG + anchor), 100 nM annealed; ATP concentration: 500 uM.
Summary of the method: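 Cy3-labelled switching-strand clusters on a modified Illumina MiSeq flow-cell were annealed to 100 nM quencher-labelled ATP aptamer and imaged first in selection buffer, then after 15 min with 500 uM ATP at 22 °C. NaOH stripping and re-annealing separated each of five buffer/ATP cycles, and clusters outside 100-1000 RFU were excluded. The fluorescence ratio sums target-cycle Cy3 intensity over buffer-cycle Cy3 intensity per cluster and averages it per switch-domain sequence.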
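Also: ATP exposure 15 min at 22 °C before imaging.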

| Sequence | switch fluorescence ratio |
| --- | --- |
| TAATTAATGG | 1 ± 0.031 |
| ATTATTTTTT | 1.02 ± 0.046 |
| GTCGGGAGGT | 0.989 ± 0.015 |
| GTGGCAACAA | 0.984 ± 0.035 |
| TCGGTAAATT | 1.05 ± 0.014 |
| CTATGTGGTG | 1.02 ± 0.054 |
| CATGATAGGT | 0.975 ± 0.057 |
| CGGTTTACGG | 0.986 ± 0.011 |
| ACCCTCAAAA | 1.31 ± 0.031 |
| TAGCTGAGTG | 0.985 ± 0.043 |
| GGCTAACGAC | 1.063 ± 0.0021 |
| TGTTTTCTAG | 0.99 ± 0.022 |
| GACTGTTACA | 1.2 ± 0.017 |
| TTCACATACG | 1.51 ± 0.03 |
| TTCTGGCACA | 1.02 ± 0.029 |
| AGGTATTGGA | 0.985 ± 0.015 |
| ACTGGTTTTG | 1.01 ± 0.022 |
| TCTTGGATCT | 0.987 ± 0.055 |
| GAAATGTTAG | 0.966 ± 0.025 |
| CAGGGAAAGA | 1 ± 0.011 |
| ATAAAGTATG | 0.99 ± 0.018 |
| AGTGGTTTGT | 0.949 ± 0.017 |

| Sequence | switch fluorescence ratio |
| --- | --- |
| GCTGACGGTT | 0.997 ± 0.024 |
| TTTTGACCGT | 0.973 ± 0.037 |
| TAGGTAGGTT | 1.015 ± 0.0086 |
| ATCTTGGGTT | 1.006 ± 0.0064 |
| ACTGGTATAG | 1.041 ± 0.0019 |
| AGCGGATTAA | 1.016 ± 0.0017 |
| ATGAGAAGGC | 0.997 ± 0.038 |
| TTGGGGCTTG | 0.998 ± 0.012 |
| TGTGCGGGGG | 1.02 ± 0.019 |
| TTAGCGAAGG | 1.003 ± 0.0046 |
| GTTGGGTGGG | 0.984 ± 0.013 |
| TTATGGTTGG | 0.995 ± 0.012 |
| AAGGGGACCC | 1.04 ± 0.043 |
| TACCGTATTT | 1.04 ± 0.027 |
| AGGGTAAGTC | 0.972 ± 0.043 |
| AGTCTGGGGC | 0.942 ± 0.023 |
| ATTTTGTATG | 0.976 ± 0.026 |
| GAGGGACGAG | 1.05 ± 0.015 |
| AATTTGGAAG | 0.981 ± 0.027 |
| CGGGGTGTCT | 1.02 ± 0.071 |
| TTGAGTTTGG | 0.985 ± 0.022 |
| CCACCTATCA | 1.07 ± 0.031 |

| Sequence | switch fluorescence ratio |
| --- | --- |
| GCGGGCTGGA | 1.01 ± 0.044 |
| TATAAAGAGG | 0.987 ± 0.038 |
| GATTGTGGAC | 1.1 ± 0.063 |
| TGAGGGTTTA | 0.991 ± 0.017 |
| CAAGCTCTGT | 1.01 ± 0.016 |
| TATTGGGGGA | 0.995 ± 0.043 |
| TATTGTGTAA | 1 ± 0.023 |
| TCAAAGAAC | 1.0338 ± 0.00026 |
| TATTTTCGGT | 0.986 ± 0.021 |
| TCAAGGCGGA | 0.99 ± 0.012 |
| CGAAGGCTCG | 0.99 ± 0.04 |
| TTTCTTGGTT | 0.991 ± 0.016 |
| GGGGTATGGA | 0.989 ± 0.023 |
| CGGTAGGGTT | 0.978 ± 0.022 |
| CTAGGACAGC | 0.994 ± 0.012 |
| ATGGCGACGA | 1.027 ± 0.0095 |
| GGTTTTCGGG | 0.969 ± 0.035 |
| ATTTCGATTA | 0.9965 ± 0.0067 |
| ATTAATTAAT | 1 ± 0.034 |
| TGTAAGAGAT | 1.01 ± 0.011 |
| GAGGGGTTGC | 1.09 ± 0.047 |
| TTTATGCCGG | 1.01 ± 0.029 |

| Sequence | switch fluorescence ratio |
| --- | --- |
| AAGAGCCGCG | 1.03 ± 0.045 |
| GGAAACACAG | 1.02 ± 0.035 |
| ACATACGCAA | 4.63 ± 0.56 |
| CATAGGAGAC | 1 ± 0.017 |
| AAACAGCTCA | 0.994 ± 0.027 |
| GTTTTTCGT | 1 ± 0.062 |
| GGTTAGGGCG | 1.0062 ± 0.00068 |
| AACGGAGTGC | 1 ± 0.045 |
| TTATTTCCAC | 0.986 ± 0.013 |
| GGGGATGGGT | 0.999 ± 0.045 |
| TAGCGGAAAA | 1.018 ± 0.0026 |
| TGTTTAAGTT | 1.02 ± 0.023 |
| ATGGGCTTAC | 1.2301 ± 0.00072 |
| CGGTTCGGCG | 0.987 ± 0.0099 |
| ATCTTGAGAC | 1.02 ± 0.042 |
| TGTTTGGTGG | 0.968 ± 0.026 |
| CTGTGGGTAG | 1.03 ± 0.021 |
| TATACGGGGA | 1.01 ± 0.021 |
| CGCGTAATAT | 2.07 ± 0.069 |
